Our source for the EC50 values is patent US20230053258A1 (RAMOT AT TEL AVIV UNIVERSITY, published 2023).

This assay addresses T1, recombinant human wild type insulin degrading enzyme (WT rhIDE) (human, UniProt P14735 42-1019).
T1 construct: also called WT IDE; active IDE
Nature of the assay: ELISA on coated WT rhIDE. In general terms: In an ELISA, binding on a coated surface is turned into a signal by an enzyme label.

Protocol: Following 3 washes with PBST, 3,3′,5,5′-tetramethylbenzidine (TMB; eBioscience, San Diego, Calif., USA) was added until color appeared. The reaction was stopped by adding 1 M H₂SO₄, and analyzed using a Spectrafluor plus microplate reader at 450 nm.

B1: B1 Inclonal IgG (human IgG1) (antibody, V domains shown)
VH: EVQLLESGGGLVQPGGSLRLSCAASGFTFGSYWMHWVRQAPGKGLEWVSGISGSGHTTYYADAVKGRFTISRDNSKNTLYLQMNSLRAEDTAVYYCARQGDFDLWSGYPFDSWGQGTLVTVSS
VL: DIVLTQSPGTLSLSPGERATLSCRASQSVSSHLAWYQQKPGQAPRLLIYDASNRATGIPDRFSGSGSGTDFTLTISRLEPEDFAVYYCQQYDSYPYTFGQGTKLDIK
notes: also called B1 IgG
By EC50 is commonly meant the concentration giving half of the maximal effect. For B1, the EC50 was ~1 nM.

B2: A9 Inclonal IgG (human IgG1) (antibody, V domains shown)
VH: EVQLLESGGGLVQPGGSLRLSCAASGFTFRSYGMHWVRQAPGRGLEWVSAINSNGDSTYYPDTVKDRFTISRDNSKNTLYLQMNSLRAEDTAVYYCARADYYDSTGYYYHGLDLWGQGTLVTVSS
VL: DIVLTQPPSASGTPGQRVTISCSGSRDNIGKNYVSWYQQLPGTAPKLLIYRNNQRPSGVPDRFSGSKSGTSASLAISGLRSEDEADYYCSSYAGSSVIFGGGTKVTVL
notes: also called A9 IgG; IgG A9
Regarding B2, the concentration for a half-maximal effect (EC50) is ~1 nM.
